Measurements taken from patent US20170348438A1 (CASE WESTERN RESERVE UNIVERSITY, published 2017).
Positions of bridges follow the written chain, without caps; N, C: chain ends. Primed or numbered codes have the meaning given here. No end group written: not given here. PEG3′ = not defined here

T1: MRP-8/14 heterodimer (untagged MRP-8 premixed 1:1 with His-tagged MRP-14) (UniProt P05109 1-93; P06702 1-114)
T1 construct: Formed by mixing equal molar amounts for 3 hours with 0.1 mM CaCl2; only MRP-14 has a His tag; not shown: His tag
T1 sequence 1: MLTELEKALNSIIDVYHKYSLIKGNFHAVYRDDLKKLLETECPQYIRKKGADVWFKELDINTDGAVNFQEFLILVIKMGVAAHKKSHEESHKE
T1 sequence 2: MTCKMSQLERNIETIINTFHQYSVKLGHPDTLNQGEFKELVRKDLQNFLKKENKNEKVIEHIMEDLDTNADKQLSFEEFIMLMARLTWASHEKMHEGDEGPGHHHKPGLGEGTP

B1: M13 phage displaying MTP2 (ASSHIHH) (peptide)
peptide: ASSHIHH
notes: Tested as whole phage in the ELISA; not shown: rest of the M13 coat protein fusion of the Ph.D.-7 library (New England Biolabs); not described
B2: His-tagged MRP-14 (other)
chain: MTCKMSQLERNIETIINTFHQYSVKLGHPDTLNQGEFKELVRKDLQNFLKKENKNEKVIEHIMEDLDTNADKQLSFEEFIMLMARLTWASHEKMHEGDEGPGHHHKPGLGEGTP
notes: Commercial His-tagged protein, captured on a Ni-NTA chip for SPR and coated on plates for the phage ELISA; The position of the His tag is unknown; its order in the chain is arbitrary; not shown: His tag
B3: M13 phage displaying MTP7 (ACYGKPEHHC) (peptide)
peptide: ACYGKPEHHC
modifications: disulfide 2-10 (inferred); also: displayed on M13 phage coat protein fusion
notes: Tested as whole phage in the ELISA; cyclic library; not shown: rest of the M13 coat protein fusion of the Ph.D.-C7C library (New England Biolabs); not described
B4: M13 phage displaying MTP3 (HNHMADP) (peptide)
peptide: HNHMADP
notes: as for B1
B5: Scrambled peptide MDPHAHNGGGS (peptide)
peptide: MDPHAHNGGGS-NH2
notes: Synthetic control peptide with a GGGS spacer; also called scrambled control
B6: M13 phage displaying MTP6 (ACNSVHQHHC) (peptide)
peptide: ACNSVHQHHC
modifications: disulfide 2-10 (inferred); also: displayed on M13 phage coat protein fusion
notes: as for B3
B7: M13 phage displaying MTP10 (ACRPKNNHSC) (peptide)
peptide: ACRPKNNHSC
modifications: disulfide 2-10 (inferred); also: displayed on M13 phage coat protein fusion
notes: as for B3
B8: M13 phage displaying MTP1 (TTFHHHK) (peptide)
peptide: TTFHHHK
notes: as for B1
B9: M13 phage displaying MTP8 (ACPHHPQKHC) (peptide)
peptide: ACPHHPQKHC
modifications: disulfide 2-10 (inferred); also: displayed on M13 phage coat protein fusion
notes: as for B3
B10: M13 phage displaying MTP9 (ACPTGLHHAC) (peptide)
peptide: ACPTGLHHAC
modifications: disulfide 2-10 (inferred); also: displayed on M13 phage coat protein fusion
notes: as for B3
B11: M13 phage displaying MTP4 (ACKAPAHHHC) (peptide)
peptide: ACKAPAHHHC
modifications: disulfide 2-10 (inferred); also: displayed on M13 phage coat protein fusion
notes: as for B3
B12: M13 phage displaying MTP5 (ACNSHRHGAC) (peptide)
peptide: ACNSHRHGAC
modifications: disulfide 2-10 (inferred); also: displayed on M13 phage coat protein fusion
notes: as for B3

What was measured:
[1] = biological target: T2, bovine serum albumin (bovine, UniProt P02769 25-607); experiment: phage ELISA on BSA-blocked wells, HRP anti-M13 antibody, ABTS, absorbance 410 nm
T2 construct: Background control in the phage ELISA; also called BSA
T2 sequence (P02769 25-607 limits assumed): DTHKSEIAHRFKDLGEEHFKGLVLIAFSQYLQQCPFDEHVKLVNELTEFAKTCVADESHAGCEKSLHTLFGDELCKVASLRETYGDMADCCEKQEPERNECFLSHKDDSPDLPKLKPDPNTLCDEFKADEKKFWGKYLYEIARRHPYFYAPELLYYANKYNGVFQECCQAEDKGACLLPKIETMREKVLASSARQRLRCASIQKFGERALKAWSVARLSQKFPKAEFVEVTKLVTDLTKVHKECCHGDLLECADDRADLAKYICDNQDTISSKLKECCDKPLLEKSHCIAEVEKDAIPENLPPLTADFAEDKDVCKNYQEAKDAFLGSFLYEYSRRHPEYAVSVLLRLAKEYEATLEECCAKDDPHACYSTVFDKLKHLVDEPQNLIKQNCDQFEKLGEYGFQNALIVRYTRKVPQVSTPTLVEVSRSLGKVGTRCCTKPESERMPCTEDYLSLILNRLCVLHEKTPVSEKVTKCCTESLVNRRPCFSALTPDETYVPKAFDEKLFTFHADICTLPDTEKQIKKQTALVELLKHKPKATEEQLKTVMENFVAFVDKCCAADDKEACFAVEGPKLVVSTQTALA

[2] = biological target: T3, TMV-MTP6 (tobacco mosaic virus particle displaying MTP6) (tobacco mosaic virus, UniProt P69687 2-159, alkyne handle (3-ethynylaniline diazonium) on exterior tyrosine residues; about 20% of the coat proteins carry MTP6; C-terminal 3-monomer PEG spacer and azide, joined by CuAAC to an alkyne on …); experiment: SPR, His-tagged MRP-14 on Ni-NTA chip, kinetic curve fit, concentration as MTP6 peptide
T3 construct: Whole virus nanoparticle (with its RNA) with about 400 MTP6 peptides on 2130 coat proteins
T3 sequence (P69687 2-159): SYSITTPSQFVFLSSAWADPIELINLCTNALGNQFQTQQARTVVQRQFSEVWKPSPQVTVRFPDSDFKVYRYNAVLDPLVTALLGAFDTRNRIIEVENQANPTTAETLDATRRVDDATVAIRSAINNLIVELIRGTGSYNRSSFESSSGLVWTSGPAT

[3] = biological target: T3, TMV-MTP6 (tobacco mosaic virus particle …); experiment: SPR, His-tagged MRP-14 on Ni-NTA chip, kinetic curve fit
[4] = biological target: B2; experiment: SPR, His-tagged MRP-14 on Ni-NTA chip, saturation binding curve fit
[5] = biological target: B2; experiment: SPR, His-tagged MRP-14 on Ni-NTA chip, peptide injected
[6] = biological target: T1, MRP-8/14 heterodimer (untagged MRP-8 …); experiment: SPR, MRP-8/14 held on Ni-NTA chip by the His tag of MRP-14, saturation binding curve fit; MRP-8/14 heterodimer on the chip, not MRP-14 alone

Binder | binding result [1] | other results
B1 | no binding (tested: 2.5E+11 pfu/mL) | 
B2 |  | Kd [2]: 0.754 µM; koff [3]: 0.000686 s⁻¹; kon [3]: 910 M⁻¹ s⁻¹
B3 | no binding (tested: 2.5E+11 pfu/mL) | 
ASSHIHHGGGS-NH2 [MTP2 synthetic peptide ASSHIHHGGGS] |  | Kd [4]: 77.6 µM
B4 | no binding (tested: 2.5E+11 pfu/mL) | 
B5 |  | binding result [5]: no binding (tested: 6.25 µM to 100 µM)
B6 | no binding (tested: 2.5E+11 pfu/mL) | 
HNHMADPGGGS-NH2 [MTP3 synthetic peptide HNHMADPGGGS] |  | Kd [4]: 117 µM
B7 | no binding (tested: 2.5E+11 pfu/mL) | 
ACNSVHQHHCGGGS-{PEG3′-azide} (disulfide 2-10 (inferred)) [MTP6-N3 (azide-functionalized MTP6)] |  | Kd [4]: 55.7 µM
B8 | no binding (tested: 2.5E+11 pfu/mL) | 
B9 | no binding (tested: 2.5E+11 pfu/mL) | 
B10 | no binding (tested: 2.5E+11 pfu/mL) | 
ACNSVHQHHCGGGS-NH2 (disulfide 2-10 (inferred), lead peptide) [MTP6 synthetic peptide ACNSVHQHHCGGGS] |  | Kd [6]: 57.6 µM; Kd [4]: 39.6 µM
B11 | no binding (tested: 2.5E+11 pfu/mL) | 
B12 | no binding (tested: 2.5E+11 pfu/mL) | 
